Laboratory results published in patent US9732101B2, “Bioreversible boronates for delivery of molecules into cells” (WISCONSIN ALUMNI RESEARCH FOUNDATION, priority 2012, dated 2017).

What was measured:
HeLa cells = test: Cellular internalization by flow cytometry; assay type: cell-based; details: for increase in cellular uptake into HeLa cells: 5 μM, 4 h, relative to unmodified lysozyme; for effect of fructose on enhancement of cellular uptake into HeLa cells: fructose 250 mM
Method: Cell lines were obtained from American Type Culture Collection (Manassas, Va.) and were maintained according to the recommended guidelines. Cells were grown in a cell culture incubator at 37° C. and 5% CO2 in flat-bottomed culture flasks. Cell media was supplemented with 10% (v/v) GIBCO fetal bovine serum (FBS), 100 units/mL penicillin, and 100 μg/mL streptomycin in the appropriate cellular media for HeLa cells: DMEM, high glucose (Invitrogen, Carlsbad, Calif.). Cells were counted by hemocytometry for dispensing into 12-well plates (Corning Costar, Lowell, Mass.).
BODIPY-FL was excited with a 488 nm solid-state laser and the emission was collected with a 530/30 bandpass filter. At least 10,000 cellular events were acquired for each sample. Data were analyzed using FlowJo 8.1.3 (Treestar, Ashland, Oreg.).
The day prior to the experiment, 1×10^5HeLa cells/well were plated in 12 well plates. The day of the experiment, the appropriate amount of fructose was dissolved into the cellular medium to obtain a final 250 mM fructose concentration, then it was sterile filtered with a 0.45 μm Whatman (Piscataway, N.J.) syringe filter. Non-fructose containing medium was likewise sterile filtered to maintain consistency between the experimental groups. Stock solutions of fluorescently labeled proteins were diluted into the cell culture to a final concentration of 5 μM. proteins were incubated with cells for four hours, then the cells were rinsed twice with PBS, removed from the cell culture plate with trypsin, placed in flow cytometry tubes containing 80 μL of FBS (to ensure cell viability), and incubated on ice until analyzed by flow cytometry. Final fluorescence values were divided by the percent fluorophore labeling of the protein to determine the corrected value of fluorescence. Experiments were run in triplicate (except for PBA-boronated lysozyme, which was in duplicate) and the data is reported as the mean±standard deviation normalized to the wild type protein uptake.
Flow cytometry experiments were conducted as described in Example 11 with Fluorescein-conjugated NeutrAvidin and Boronated Fluorescein-conjugated NeutrAvidin (boronated by complexation to the PBA-boronated Biotin-peptide conjugate) in HeLa cells.

Pro-5 cells = test: Cellular internalization by flow cytometry; assay type: cell-based, Chinese hamster
Method: (§1) Cell lines were obtained from American Type Culture Collection (Manassas, Va.) and were maintained according to the recommended procedures. Cells were grown in a cell culture incubator at 37° C. under CO2 (5% v/v) in flat-bottomed culture flasks. Cell medium was supplemented with GIBCO fetal bovine serum (FBS) (10% v/v), penicillin (100 units/mL), and streptomycin (100 μg/mL) in the appropriate cellular medium as follows: Pro-5, MEM α+ribonucleosides+deoxyribonucleosides; Lec-2, MEM α-ribonucleosides-deoxyribonucleosides; and K562, RPMI 1640. Cells were counted by hemocytometry for dispensing into 12-well plates (Corning Costar, Lowell, Mass.) or 8-well chambered coverglass slides (Nuc Lab-Tek II, Thermo Scientific).
(§2) BODIPY-FL was excited with a 488 nm solid-state laser and the emission was collected with a 530/30 bandpass filter. To collect the most reproducible data, for every flow cytometry experiment, the sensitivity (voltage) of the photomultiplier tube was set for all data collections using mid-range Rainbow beads from Spherotech (Lake Forest, Ill.) to a predetermined fluorescence target value. At least 10,000 cellular events were acquired for each sample. Data were analyzed using FlowJo 8.1.3 (Treestar, Ashland, Oreg.).
(§3) The day prior to an experiment, Pro-5 and Lec-2 cells were plated in 12-well plates at 1×10^5 cells/well. The day of the experiment, the appropriate amount of fructose was dissolved into the cellular medium to obtain a final fructose concentration of 250 mM, and the medium was passed through a 0.45-μm syringe filter from Whatman (Piscataway, N.J.). Non-fructose-containing medium was filtered likewise. Stock solutions of fluorescently labeled ribonucleases were diluted into the cell culture to a final concentration of 5 μM. Ribonucleases were incubated with cells for 4 h. Cells were then rinsed with PBS (2×400 μL), removed from the cell culture plate with trypsin (400 μL, 0.05% (1×) with EDTA; Invitrogen, Carlsbad, Calif.), placed in flow cytometry tubes containing 80 μL of FBS, and incubated on ice until analyzed by flow cytometry. Final fluorescence values were divided by the percent fluorophore labeling of the ribonuclease to determine the corrected value of fluorescence. Experiments were run twice in triplicate unless otherwise indicated. Data is illustrated in FIG. 4A and FIG. 4C.

Lec-2 cells = test: Cellular internalization by flow cytometry; assay type: cell-based, Chinese hamster
Method: as §1, §2, §3

[1] = Hydrolysis of labeled protein by cell lysate; assay type: in vitro ADME, Chinese hamster; details: CHO K1 cell lysate, ambient temperature, 12 h, MALDI-TOF
Method: CHO K1 cells were grown to confluence in a 10-cm^2 dish before their collection and lysis with M-PER (Thermo Fisher Scientific). The presence of esterase activity in the lysate was verified by a colorimetric assay using p-nitrophenyl acetate (data not shown). A solution of TMLB-GFP (10 μg) was added to 200 μL of CHO K1 cell lysate, and the reaction mixture was nutated at ambient temperature for 12 h. The GFP was subsequently purified with HisPur™ Ni-NTA Magnetic Beads (Thermo Fisher Scientific).

K-562 cells = test: Cell-proliferation assay, CyQUANT NF; assay type: cell-based, human; details: 48 h, serum-free RPMI 1640, read-out: IC50, inhibition of K-562 cell proliferation
Method: The effect of unmodified G88R RNase A and TMLB-G88R RNase A on the proliferation of K-562 cells was assayed using a CyQUANT® NF Cell Proliferation Assay Kit (Invitrogen). Briefly, 5×10^4 cells/mL were added to each well of a 96-well plate in 100 μL of serum-free RPMI 1640 medium. Cells were incubated with G88R RNase A or TMLB-G88R RNase A for 48 h, with PBS and H2O2 serving as negative and positive controls, respectively. Cells were then washed and incubated in CyQUANT® reagent for 30 min and fluorescence intensity was measured with excitation at ˜485 nm and emission detection at ˜530 nm. Data are the average of two measurements for each concentration, and the entire experiment was repeated in triplicate. The results are shown as the percentage of dye incorporated relative to control cells treated with PBS. Values for IC50 were calculated by fitting the curves by nonlinear regression to the equation: y=100%/(1+10^(log(IC50)-log [ribonuclease])h), where y is the total DNA synthesis following the CyQUANT dye pulse and h is the slope of the curve (FIG. 28).

[2] = Hydrolysis of labeled protein by cell lysate; assay type: in vitro ADME, human; details: K-562 cell lysate, ambient temperature, 12 h, MALDI-TOF
Method: K-562 cells were grown to confluence in a T75 flask before their collection and lysis with M-PER from Thermo Fisher Scientific. The presence of esterase activity in the lysate was verified by a colorimetric assay using p-nitrophenyl acetate (data not shown). A solution of esterified FLAG-RNase A (10 μg) was added to 200 μL of K-562 cell lysate, and the reaction mixture was nutated at ambient temperature for 12 h. FLAG-RNase A was purified with anti-FLAG® M2 Magnetic Beads from Sigma-Aldrich.

[3] = 5 μM, 4 h, relative to unmodified RNase A

Molecule: Boronated Fluorescein-conjugated NeutrAvidin: Fluorescein-conjugated NeutrAvidin boronated by complexation to the PBA-boronated Biotin-peptide conjugate
- increase in internalization in HeLa cells (HeLa cells; relative to unmodified Fluorescein-conjugated NeutrAvidin): about 2 fold

Molecule: benzoboroxole-boronated lysozyme: chicken egg white lysozyme conjugated with 5-amino-2-hydroxymethylphenylboronic acid, on average 2.3±1.1 per lysozyme
- increase in cellular uptake into HeLa cells (HeLa cells): about 4 fold
- effect of fructose on enhancement of cellular uptake into HeLa cells (HeLa cells): decreased

Molecule: PBA-boronated lysozyme: chicken egg white lysozyme conjugated with 3-aminophenyboronic acid, on average 2.6±1.7 PBA
- increase in cellular uptake into HeLa cells (HeLa cells): about 20 fold
- effect of fructose on enhancement of cellular uptake into HeLa cells (HeLa cells): decreased

B1: PBA-boronated RNase A: RNase A conjugated with 3-aminophenylboronic acid, on average 5.3±2.3 PBA per protein (conjugate, UniProt P61823 27-150, looked up)
Ribonuclease pancreatic: KETAAAKFERQHMDSSTSAASSSNYCNQMMKSRNLTKDRCKPVNTFVHESLADVQAVCSQKNVACKNGQTNCYQSYSTMSITDCRETGSSKYPNCAYKTTQANKHIIVACEGNPYVPVHFDASV
modifications: 3-aminophenylboronic acid conjugates
notes: RNase A conjugated with 3-aminophenylboronic acid, on average 5.3±2.3 PBA per protein
- increase in cellular uptake (Pro-5 cells; [3]): 2.5-3 fold
- effect of fructose on enhancement of cellular uptake (Pro-5 cells; fructose 0.25 M): eliminated
- increase in cellular uptake (Lec-2 cells; [3]): 2.5-3 fold
- effect of fructose on enhancement of cellular uptake (Lec-2 cells; fructose 0.25 M): eliminated

B2: TMLB-labeled G88R RNase A: G88R RNase A labeled with TMLB-NHS ester, 2±1 labels per protein (conjugate, UniProt P61823 27-150, looked up, variant G88R)
Ribonuclease pancreatic: KETAAAKFERQHMDSSTSAASSSNYCNQMMKSRNLTKDRCKPVNTFVHESLADVQAVCSQKNVACKNGQTNCYQSYSTMSITDCRETRSSKYPNCAYKTTQANKHIIVACEGNPYVPVHFDASV
modifications: TMLB ester labels
notes: G88R RNase A labeled with TMLB-NHS ester, 2±1 labels per protein
- reversibility of labeling: removal of labels by cell lysate [1]: removed all of the labels
- IC50 (K-562 cells): 3.5 ± 0.8 µM

B3: esterified FLAG-RNase A: FLAG-RNase A labeled with TMLB-NHS ester, 1.6±0.7 labels per protein (conjugate, UniProt P61823 27-150, looked up)
Ribonuclease pancreatic: KETAAAKFERQHMDSSTSAASSSNYCNQMMKSRNLTKDRCKPVNTFVHESLADVQAVCSQKNVACKNGQTNCYQSYSTMSITDCRETGSSKYPNCAYKTTQANKHIIVACEGNPYVPVHFDASV
modifications: FLAG tag; TMLB ester labels
notes: FLAG-RNase A labeled with TMLB-NHS ester, 1.6±0.7 labels per protein
- reversibility of labeling: removal of labels by cell lysate [2]: regeneration of unlabeled FLAG-RNase A was confirmed

B4: G88R RNase A: cytotoxic G88R variant of ribonuclease A (protein, UniProt P61823 27-150, looked up, variant G88R)
Ribonuclease pancreatic: KETAAAKFERQHMDSSTSAASSSNYCNQMMKSRNLTKDRCKPVNTFVHESLADVQAVCSQKNVACKNGQTNCYQSYSTMSITDCRETRSSKYPNCAYKTTQANKHIIVACEGNPYVPVHFDASV
- IC50 (K-562 cells): 6.4 ± 0.1 µM
